Measured values from patent publication US20250084169A1 (published 2025).
Residue numbers refer to the chain shown, from its start. Where two headings read alike, the source gives them in different places.

How the values were obtained:
[1] = molecular target: T1, recombinant human Fc gamma RIIIa (CD16a) 158V (human, UniProt P08637 17-208)
[2] = molecular target: T2, recombinant human Fc gamma RIIIb (CD16b) (human, UniProt O75015 17-200)
[3] = molecular target: T3, recombinant human Fc gamma RIIIa (CD16a) 158F (human, UniProt P08637 17-208)
T3 sequence (P08637 17-208 limits assumed): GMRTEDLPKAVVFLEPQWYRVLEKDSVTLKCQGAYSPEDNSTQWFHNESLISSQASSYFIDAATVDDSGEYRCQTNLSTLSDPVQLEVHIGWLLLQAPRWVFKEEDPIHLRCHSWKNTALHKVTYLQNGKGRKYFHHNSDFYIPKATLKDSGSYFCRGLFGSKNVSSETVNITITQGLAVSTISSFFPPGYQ

[4] = molecular target: T4, recombinant cynomolgus monkey CD19 (cynomolgus monkey, UniProt A0A2K5W8L9 20-292)
T4 sequence: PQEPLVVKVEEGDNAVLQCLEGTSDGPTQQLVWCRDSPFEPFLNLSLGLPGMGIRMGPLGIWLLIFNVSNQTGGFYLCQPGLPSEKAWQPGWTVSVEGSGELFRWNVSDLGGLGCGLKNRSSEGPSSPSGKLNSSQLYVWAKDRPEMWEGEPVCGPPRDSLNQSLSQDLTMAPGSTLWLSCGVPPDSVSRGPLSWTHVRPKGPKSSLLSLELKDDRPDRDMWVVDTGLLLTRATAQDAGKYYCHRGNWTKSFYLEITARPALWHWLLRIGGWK

[5] = molecular target: T5, recombinant cynomolgus monkey CD20 (cynomolgus monkey, UniProt M4ZHZ6 1-297)
T5 sequence: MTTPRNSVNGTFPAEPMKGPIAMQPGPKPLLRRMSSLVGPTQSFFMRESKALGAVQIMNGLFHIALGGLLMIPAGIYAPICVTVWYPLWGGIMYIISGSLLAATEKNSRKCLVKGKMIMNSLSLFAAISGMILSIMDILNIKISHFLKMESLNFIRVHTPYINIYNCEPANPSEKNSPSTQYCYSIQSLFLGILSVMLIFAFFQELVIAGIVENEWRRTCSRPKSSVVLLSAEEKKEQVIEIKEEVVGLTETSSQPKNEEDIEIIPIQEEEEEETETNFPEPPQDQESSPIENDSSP

[6] = molecular target: T6, recombinant human Fc gamma RIIb/c (CD32b/c) (human, UniProt P31994 46-217)
T6 sequence (looked up): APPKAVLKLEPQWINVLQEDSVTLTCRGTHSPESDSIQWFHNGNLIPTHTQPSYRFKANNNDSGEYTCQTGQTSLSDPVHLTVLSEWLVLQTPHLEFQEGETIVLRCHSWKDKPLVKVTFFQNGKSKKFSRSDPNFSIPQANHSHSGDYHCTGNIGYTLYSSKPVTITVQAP

[7] = molecular target: T7, recombinant human Fc gamma RI (CD64) (human, UniProt P12314 16-288)
T7 sequence (P12314 16-288 limits assumed): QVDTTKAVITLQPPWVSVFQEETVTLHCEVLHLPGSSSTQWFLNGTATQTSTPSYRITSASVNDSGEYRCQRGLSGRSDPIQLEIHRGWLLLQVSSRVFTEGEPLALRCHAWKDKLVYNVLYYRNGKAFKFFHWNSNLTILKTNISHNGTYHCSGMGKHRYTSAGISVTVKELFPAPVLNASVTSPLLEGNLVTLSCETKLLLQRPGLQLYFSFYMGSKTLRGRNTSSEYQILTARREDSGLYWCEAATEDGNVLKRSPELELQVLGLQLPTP

[8] = molecular target: T8, recombinant human Fc gamma RIIa (CD32a) 131R (human, UniProt P12318 36-218)
T8 sequence (looked up): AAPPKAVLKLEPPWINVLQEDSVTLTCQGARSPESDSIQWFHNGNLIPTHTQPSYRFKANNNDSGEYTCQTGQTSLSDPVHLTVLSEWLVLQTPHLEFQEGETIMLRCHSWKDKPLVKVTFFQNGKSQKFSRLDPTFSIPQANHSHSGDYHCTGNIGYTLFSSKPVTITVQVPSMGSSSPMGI

[9] = molecular target: T9, recombinant human full-length CD20 (human, UniProt P11836 1-297)
T9 sequence (looked up): T5 sequence with P25S, L31F, A51T, V157A, R217K, S226N, V227I, V239T

recombinant human CD19 = molecular target: T10, recombinant human CD19 (human, UniProt P15391 20-291)
T10 sequence (looked up): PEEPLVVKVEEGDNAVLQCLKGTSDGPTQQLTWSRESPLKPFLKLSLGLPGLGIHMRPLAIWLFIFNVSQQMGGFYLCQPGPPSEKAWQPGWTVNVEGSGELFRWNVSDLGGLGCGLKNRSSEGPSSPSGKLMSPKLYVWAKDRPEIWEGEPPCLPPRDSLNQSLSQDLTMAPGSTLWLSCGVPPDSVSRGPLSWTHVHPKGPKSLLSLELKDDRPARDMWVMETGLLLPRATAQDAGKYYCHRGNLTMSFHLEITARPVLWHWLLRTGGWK

[10] = molecular target: T11, cynomolgus monkey Fc gamma receptor CD32a (cynomolgus monkey)
[11] = molecular target: T12, cynomolgus monkey Fc gamma receptor CD32b (cynomolgus monkey)
[12] = molecular target: T13, cynomolgus monkey Fc gamma receptor CD16 (cynomolgus monkey, UniProt Q8SPW2 17-208)
T13 sequence (Q8SPW2 17-208 limits assumed): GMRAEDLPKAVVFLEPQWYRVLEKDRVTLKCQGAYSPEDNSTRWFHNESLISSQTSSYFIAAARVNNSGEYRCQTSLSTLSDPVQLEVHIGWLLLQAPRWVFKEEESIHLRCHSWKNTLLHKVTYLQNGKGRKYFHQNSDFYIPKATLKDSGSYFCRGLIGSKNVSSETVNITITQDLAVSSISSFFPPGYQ

[13] = molecular target: T11, cynomolgus monkey Fc gamma receptor …; remark: listed apart in the source
[14] = molecular target: T12, cynomolgus monkey Fc gamma receptor …; remark: listed apart in the source
[15] = molecular target: T13, cynomolgus monkey Fc gamma receptor CD16; remark: listed apart in the source
[16] = molecular target: T14, recombinant human Fc gamma RIIa (CD32a) 131H (human, UniProt P12318 36-218)
T14 sequence (looked up): T8 sequence (looked up) with R132H

[17] = molecular target: T1, recombinant human Fc gamma RIIIa …; remark: listed apart in the source
[18] = molecular target: T6, recombinant human Fc gamma RIIb/c …; remark: listed apart in the source
[19] = molecular target: T7, recombinant human Fc gamma RI (CD64); remark: listed apart in the source
[20] = molecular target: T2, recombinant human Fc gamma RIIIb (CD16b); remark: listed apart in the source
[21] = molecular target: T8, recombinant human Fc gamma RIIa (CD32a) …; remark: listed apart in the source
[22] = molecular target: T3, recombinant human Fc gamma RIIIa …; remark: listed apart in the source

T1 sequence (P08637 17-208 F176V limits assumed): as the sequence (P08637 17-208 limits assumed) above, with F160V counted along it
T2 sequence (O75015 17-200 limits assumed): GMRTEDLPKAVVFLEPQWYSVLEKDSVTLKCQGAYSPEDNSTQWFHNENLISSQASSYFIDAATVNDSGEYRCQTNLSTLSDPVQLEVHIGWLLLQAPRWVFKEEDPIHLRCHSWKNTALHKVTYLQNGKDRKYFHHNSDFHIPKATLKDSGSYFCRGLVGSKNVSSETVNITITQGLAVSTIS

B1: HB2198 (bispecific antibody, human IgG1, kappa)
heavy 1: QVQLVQSGGGVVQPGRSLRLSCAASGVSLPDYGVSWVRKAPGKGLEWVAVIWGSETTYYNSALKSRFTISRDNSKNTLYLQMSSLRAEDTAVYYCAKHYYYGGSFAMDYWGQGTLVTVSSASTKGPSVFPLAPSSKSTSGGTAALGCLVKDYFPEPVTVSWNSGALTSGVHTFPAVLQSSGLYSLESVVTVPSSSLGTQTYICNVNHKPSNTKVDKKVEPKSCTDWSPYADQSIKVRISLKSALGDKAYEWNDNEMYLFRSSVAYAMRQYFLKVKNQMILFGEEDVRVANLKPRISFNFFVTAPKNVSDIIPRTEVEKAIRMSRSRINDAFRLNDNSLEFLGIQPTLGPPNQPPVSTSTSPTRSMAPGAVHLPQPVSTRDKTHTCPPCPAPELLGGPDVFLFPPKPKDTLMISRTPEVTCVVVDVSHEDPEVKFNWYVDGVEVHNAKTKPREEQYNSTYRVVSVLTVLHQDWLNGKEYKCKVSNKALPAPEEKTISKAKGQPREPQVCTLPPSRDELTKNQVSLSCAVKGFYPSDIAVEWESNGQPENNYKTTPPVLDSDGSFFLVSKLTVDKSRWQQGNVFSCSVMHEALHNRFTQKSLSLSPG
heavy 2: QIVLSQSPAILSASPGEKVTMTCRASSSVSYIHWFQKKPGSSPKPWIYATSNLASGVPVRFSGSGSGTSYSLTISRVEAEDAATYYCQQWTSNPPTFGGGTKVEIKSSASTKGPSVFPLAPSSKSTSGGTAALGCLVKDYFPEPVTVSWNSGALTSGVHTFPAVLQSSGLYSLKSVVTVPSSSLGTQTYICNVNHKPSNTKVDKKVEPKSCDKTHTCPPCPAPELLGGPDVFLFPPKPKDTLMISRTPEVTCVVVDVSHEDPEVKFNWYVDGVEVHNAKTKPREEQYNSTYRVVSVLTVLHQDWLNGKEYKCKVSNKALPAPEEKTISKAKGQPREPQVYTLPPCRDELTKNQVSLWCLVKGFYPSDIAVEWESNGQPENNYKTTPPVLDSDGSFFLYSKLTVDKSRWQQGNVFSCSVMHEALHNHYTQKSLSLSPG
light 1: DIQMTQSPSSLSASVGDRVTITCRASQDISKYLNWYQEKPGKAIKLLIYHTSRLHSGVPSRFSGSGSGTDFTLTISSLQPEDFATYYCQQGATLPYTFGPGTKLEIKRTVAAPSVFIFPPSDEQLKSGTASVKCLLNNFYPREAKVQWKVDNALQSGNSQESVTEQDSKDSTYSLSSTLTLSKADYEKHKVYACEVTHQGLSSPVTKSFNRGEC
light 2: QVQLQQPGAELVKPGASVKMSCKASGYTFTSYNMHWVKETPGRGLEWIGAIYPGNGDTSYNQKFKGKATLTADKSSSTAYMQLSSLTSEDSAVYYCARSTYYGGDWYFNVWGAGTLVTVSSASVAAPSVFIFPPSDEQLKSGTASVECLLNNFYPREAKVQWKVDNALQSGNSQESVTEQDSKDSTYSLSSTLTLSKADYEKHKVYACEVTHQGLSSPVTKSFNRGEC
[1]
  Kd: 4.19 nM
[2]
  Kd: 95 nM
[3]
  Kd: 15.7 nM
[4]
  Kd: 410 nM
[5]
  Kd: 1.4 nM
[6]
  Kd: 283 nM
[7]
  Kd: < 0.02 nM
[8]
  Kd: 128 nM
[9]
  Kd: 0.2 nM
Recombinant human CD19
  Kd: 1.5 nM
[10]
  Kd: 4 nM
[11]
  Kd: 3.4 nM
[12]
  Kd: 2 nM
[13]
  Kd: 305 nM
[14]
  Kd: 218 nM
[15]
  Kd: 1.76 nM
[16]
  Kd: < 2 nM
[17]
  Kd: < 2 nM
[18]
  Kd: 2.2 nM
[19]
  Kd: < 0.02 nM
[20]
  Kd: < 2 nM
[21]
  Kd: < 2 nM
[22]
  Kd: < 2 nM

B2: B19c66AAC9 (antibody, human IgG1, kappa)
light: not shown
heavy: QVQLQQSGAELVRPGSSVKISCKASGYAFSSYWMNWVKQRPGQGLEWIGQIWPGDGDTNYNGKFKGKATLTADESSSTAYMQLSSLASEDSAVYFCARRETTTVGRYYYAMDYWGQGTTVTVSSASTKGPSVFPLAPSSKSTSGGTAALGCLVKDYFPEPVTVSWNSGALTSGVHTFPAVLQSSGLYSLSSVVTVPSSSLGTQTYICNVNHKPSNTKVDKKVEPKSCDKTHTCPPCPAPKRRGGPSVFLFPPKPKDTLMISRTPEVTCVVVDVSHEDPEVKFNWYVDGVEVHNAKTKPREEQYNSTYRVVSVLTVLHQDWLNGKEYKCKVSNKALPAPIEKTISKAKGQPREPQVYVLPPSRDELTKNQVSLLCLVKGFYPSDIAVEWESNGQPENNYLTWPPVLDSDGSFFLYSKLTVDKSRWQQGNVFSCSVMHEALHNHYTQKSLSLSPGK
chain: CPPCPAPEDEGGPSVFLFPPKPKDTLMISRTPEVTCVVVDVSHEDPEVKFNWYVDGVEVHNAKTKPREEQYNSTYRVVSVLTVLHQDWLNGKEYKCKVSNKALPAPIEKTISKAKGQPREPQVYVYPPSRDELTKNQVSLTCLVKGFYPSDIAVEWESNGQPENNYKTTPPVLDSDGSFALVSKLTVDKSRWQQGNVFSCSVMHEALHNHYTQKSLSLSPGK
CD19 (target of Table 9)
  Kd: 21 nM
